Test results as given in patent publication US20110076298A1, “Soluble stabilized trimeric hiv env proteins and uses thereof” (priority 2006, published 2011).

Assays:
[1] = Tween 20 aggregate conversion/collapse experiments, BN-PAGE; assay type: physicochemical; details: 0° C., room temperature, 37° C.
Method: FIGS. 6A-6D: Tween® 20 conversion experiments. (A) Dose response: Purified KNH1144 SOSIP R6 gp140 trimer was incubated with 0 (no detergent control), or 0.1, 0.05, 0.01, 0.001, or 0.0001% Tween® 20 and analyzed by BN-PAGE and Coomassie G-250 stain. Arrows point to HMW aggregate and trimer species. M stands for the 669 k thyroglobulin and 440 k ferritin molecular weight protein standards. (B) Time course: Purified KNH1144 SOSIP R6 gp140 trimer was incubated with Tween® 20 for 5 min (left panel) or 10 min (right panel). Trimer was either untreated (−lane) or Tween® 20 treated (+lane). Arrows indicate trimer and HMW aggregate bands. […]
Tween® 20 Dose effect: 1 ug of purified KNH1144 SOSIP R6 trimer was incubated with varying concentrations of Tween® 20 (polyoxyethylene sorbitan monolaurate) ranging from 0 to 0.0001% (v/v) and incubated for 1 hour at room temperature. Following incubation, samples were analyzed by BN-PAGE as described above. […]
Temperature dependance on Tween® 20 effect: To determine if temperature affected the ability of Tween® 20 to recover trimers from aggregates (i.e., collapse aggregate into trimer), 1 ug of purified KNH1144 SOSIP R6 trimer was incubated with Tween® 20 to a final concentration of 0.05% (v/v) at 0° C. […] Following the incubation, samples were analyzed by BN-PAGE and Coomassie staining. […]

[2] = test system: 2G12, b6, b12, CD4-IgG2, HIVIg; assay: Lectin ELISA antigenicity, untreated vs Tween 20 treated; assay type: binding; details: 0.05% Tween 20, lectin ELISA
Source text: FIG. 8: Effect of Tween® 20 treatment on KNH1144 SOSIP R6 HMW aggregate antigenicity. Lectin ELISA of untreated and Tween® 20 treated KNH1144 SOSIP R6 HMW aggregate: Untreated or Tween® 20-treated HMW aggregate were bound to GNA lectin coated ELISA plates and probed with 2G12, b6, b12, CD4-IgG2, and HIVIg. The panels represent their respective binding curves. Antibody affinity to the untreated HMW aggregate is represented by the curve having diamond lines. Affinity to the Tween® 20 treated HMW aggregate is represented by curve having square lines. The Y-axis represents the colorimetric signal at OD492 and the X-axis represents antibody concentration in [ug/ml]. Lectin ELISA of untreated and Tween® 20-treated KNH1144 SOSIP R6 gp140 trimer: Untreated or Tween® 20 treated trimer (containing 10-15% HMW aggregate) were bound to GNA lectin coated ELISA plates and probed with 2G12, b6, b12, and CD4-IgG2. The panels represent their respective binding curves. Antibody affinity to the untreated trimer is represented by the curve having diamond lines. Affinity to the Tween® 20 treated trimer is represented by the curve having square lines. The Y-axis represents the colorimetric signal at OD492 and the X-axis represents antibody concentration in [ug/ml].
ELISA plates were coated overnight at 4° C. with lentil lectin powder from Lens culinaris (L9267, Sigma) at 10 ug/ml concentration. […]

Q: With “KNH1144 SOSIP R6 HMW aggregate: high molecular weight aggregate species of KNH1144 SOSIP R6 gp140, slower migrating on BN-PAGE” as the substance, how does the “temperature dependence of the Tween 20 effect” value [1] read?
A: temperature independent

Q: And the “antibody binding, Tween 20 treated vs untreated” value [2]?
A: increased binding
